First the molecules themselves.
B1: hCD137 MAB-3 (1B.4) (antibody, V domains shown)
VH: QVQLVQSGAEVKKPGASVKVSCKASGYTFTSYWINWVKQAPGQGLEWIGNIYPSDSYTNYNQKFKDKATITADKSTSTAYMELSSLRSEDTAVYYCTRDYGSAYSMSTWGQGTTVTVSS
VL: DIQMTQSPSSLSASVGDRVTITCQASQDISNYLNWYQQKPDKTVKLLIYYTSRLRSGVPSRFSGSGSGTDFTFTISSLQPEDIATYFCQQGDTLPYTFGQGTKLEIK
B2: hCD137 MAB-3 (1B.11) (antibody, V domains shown)
VH: QVQLVQSGAEVKKPGASVKVSCKASGYTFTSYWINWVKQAPGQGLEWIGNIYPSDSYTNYNQKFKDKATITADKSTSTAYMELSSLRSEDTAVYYCTRDYGSAYSMSTWGQGTTVTVSS
VL: DIQMTQSPSSLSASVGDRVTITCRPSQDISNYLNWYQQKPDKTVKLLIYYTGRLRSGVPSRFSGSGSGTDFTFTISSLQPEDIATYFCQQGDTLPYTFGQGTKLEIK
B3: hCD137 MAB-3 (1G.7) (antibody, V domains shown)
VH: QVQLVQSGAEVKKPGASVKVSCKASGYTFTSYWINWVRQAPGQGLEWAGNIYPSDSYTNYNQKFKDKATITADKSTSTAYMELSSLRSEDTAVYYCTRDYGSAYSMSTWGQGTTVTVSS
VL: DIQMTQSPSSLSASVGDRVTITCQASQDISNYLNWYQQKPDKTAKLLIYYTSRLRSGVPSRFSGSGSGTDFTFTISSLQPEDIATYFCQQGDTLPYTFGQGTKLEIK
B4: hCD137 MAB-3 (1B.5) (antibody, V domains shown)
VH: QVQLVQSGAEVKKPGASVKVSCKASGYTFTSYWINWVKQAPGQGLEWIGNIYPSDSYTNYNQKFKDKATITADKSTSTAYMELSSLRSEDTAVYYCTRDYGSAYSMSTWGQGTTVTVSS
VL: DIQMTQSPSSLSASVGDRVTITCRPSQDISNYLNWYQQKPDKTAKLLIYYTSRLRSGVPSRFSGSGSGTDFTFTISSLQPEDIATYFCQQGDTLPYTFGQGTKLEIK
B5: hCD137 MAB-3 (1E.14) (antibody, V domains shown)
VH: QVQLVQSGAEVKKPGASVKVSCKASGYTFTSYWINWVRQAPGQGLEWIGNIYPSDSYTNYNQKFKDKATITADKSTSTAYMELSSLRSEDTAVYYCTRDYGSAYSMSTWGQGTTVTVSS
VL: DIQMTQSPSSLSASVGDRVTITCQASQDISNYLNWYQQKPDKTVKLLIYYTTRARSGVPSRFSGSGSGTDFTFTISSLQPEDIATYFCQQGDTLPYTFGQGTKLEIK
B6: hCD137 MAB-3 (1E.9) (antibody, V domains shown)
VH: QVQLVQSGAEVKKPGASVKVSCKASGYTFTSYWINWVRQAPGQGLEWIGNIYPSDSYTNYNQKFKDKATITADKSTSTAYMELSSLRSEDTAVYYCTRDYGSAYSMSTWGQGTTVTVSS
VL: DIQMTQSPSSLSASVGDRVTITCQASQDISNYLNWYQQKPDKTVKLLIYYTSRARSGVPSRFSGSGSGTDFTFTISSLQPEDIATYFCQQGDTLPYTFGQGTKLEIK
B7: hCD137 MAB-3 (1B.10) (antibody, V domains shown)
VH: QVQLVQSGAEVKKPGASVKVSCKASGYTFTSYWINWVKQAPGQGLEWIGNIYPSDSYTNYNQKFKDKATITADKSTSTAYMELSSLRSEDTAVYYCTRDYGSAYSMSTWGQGTTVTVSS
VL: DIQMTQSPSSLSASVGDRVTITCRPSQDISNYLNWYQQKPDKTVKLLIYYTTRLRSGVPSRFSGSGSGTDFTFTISSLQPEDIATYFCQQGDTLPYTFGQGTKLEIK
B8: hCD137 MAB-3 (1B.13) (antibody, V domains shown)
VH: QVQLVQSGAEVKKPGASVKVSCKASGYTFTSYWINWVKQAPGQGLEWIGNIYPSDSYTNYNQKFKDKATITADKSTSTAYMELSSLRSEDTAVYYCTRDYGSAYSMSTWGQGTTVTVSS
VL: DIQMTQSPSSLSASVGDRVTITCRPSQDISNYLNWYQQKPDKTVKLLAYYTGRLRSGVPSRFSGSGSGTDFTFTISSLQPEDIATYFCQQGDTLPYTFGQGTKLEIK
B9: hCD137 MAB-3 (1G.4) (antibody, V domains shown)
VH: QVQLVQSGAEVKKPGASVKVSCKASGYTFTSYWINWVRQAPGQGLEWAGNIYPSDSYTNYNQKFKDKATITADKSTSTAYMELSSLRSEDTAVYYCTRDYGSAYSMSTWGQGTTVTVSS
VL: DIQMTQSPSSLSASVGDRVTITCQASQDISNYLNWYQQKPDKTVKLLIYYTSRLRSGVPSRFSGSGSGTDFTFTISSLQPEDIATYFCQQGDTLPYTFGQGTKLEIK
B10: hCD137 MAB-3 (1G.14) (antibody, V domains shown)
VH: QVQLVQSGAEVKKPGASVKVSCKASGYTFTSYWINWVRQAPGQGLEWAGNIYPSDSYTNYNQKFKDKATITADKSTSTAYMELSSLRSEDTAVYYCTRDYGSAYSMSTWGQGTTVTVSS
VL: DIQMTQSPSSLSASVGDRVTITCQASQDISNYLNWYQQKPDKTVKLLIYYTTRARSGVPSRFSGSGSGTDFTFTISSLQPEDIATYFCQQGDTLPYTFGQGTKLEIK
B11: hCD137 MAB-3 (1F.3) (antibody, V domains shown)
VH: QVQLVQSGAEVKKPGASVKVSCKASGYTFTSYWINWVKQAPGQGLEWAGNIYPSDSYTNYNQKFKDKATITADKSTSTAYMELSSLRSEDTAVYYCTRDYGSAYSMSTWGQGTTVTVSS
VL: DIQMTQSPSSLSASVGDRVTITCRPSQDISNYLNWYQQKPDKTVKLLIYYTSRLRSGVPSRFSGSGSGTDFTFTISSLQPEDIATYFCQQGDTLPYTFGQGTKLEIK
B12: hCD137 MAB-3 (1E.3) (antibody, V domains shown)
VH: QVQLVQSGAEVKKPGASVKVSCKASGYTFTSYWINWVRQAPGQGLEWIGNIYPSDSYTNYNQKFKDKATITADKSTSTAYMELSSLRSEDTAVYYCTRDYGSAYSMSTWGQGTTVTVSS
VL: DIQMTQSPSSLSASVGDRVTITCRPSQDISNYLNWYQQKPDKTVKLLIYYTSRLRSGVPSRFSGSGSGTDFTFTISSLQPEDIATYFCQQGDTLPYTFGQGTKLEIK
B13: hCD137 MAB-3 (1G.8) (antibody, V domains shown)
VH: QVQLVQSGAEVKKPGASVKVSCKASGYTFTSYWINWVRQAPGQGLEWAGNIYPSDSYTNYNQKFKDKATITADKSTSTAYMELSSLRSEDTAVYYCTRDYGSAYSMSTWGQGTTVTVSS
VL: DIQMTQSPSSLSASVGDRVTITCQASQDISNYLNWYQQKPDKTAKLLIYYTSRARSGVPSRFSGSGSGTDFTFTISSLQPEDIATYFCQQGDTLPYTFGQGTKLEIK
B14: hCD137 MAB-3 (1B.6) (antibody, V domains shown)
VH: QVQLVQSGAEVKKPGASVKVSCKASGYTFTSYWINWVKQAPGQGLEWIGNIYPSDSYTNYNQKFKDKATITADKSTSTAYMELSSLRSEDTAVYYCTRDYGSAYSMSTWGQGTTVTVSS
VL: DIQMTQSPSSLSASVGDRVTITCRPSQDISNYLNWYQQKPDKTVKLLIYYTSRARSGVPSRFSGSGSGTDFTFTISSLQPEDIATYFCQQGDTLPYTFGQGTKLEIK
B15: hCD137 MAB-3 (1E.4) (antibody, V domains shown)
VH: QVQLVQSGAEVKKPGASVKVSCKASGYTFTSYWINWVRQAPGQGLEWIGNIYPSDSYTNYNQKFKDKATITADKSTSTAYMELSSLRSEDTAVYYCTRDYGSAYSMSTWGQGTTVTVSS
VL: DIQMTQSPSSLSASVGDRVTITCQASQDISNYLNWYQQKPDKTVKLLIYYTSRLRSGVPSRFSGSGSGTDFTFTISSLQPEDIATYFCQQGDTLPYTFGQGTKLEIK
B16: TRIDENT-2 (other)
chain 1: DIQMTQSPSTLSASVGDRVTITCRASQSVGYMHWYQQKPGKAPKLLIYDTSKLASGVPSRFSGSGSGTEFTLTISSLQPDDFATYYCFQGSGYPFTFGGGTKLEIKGGGSGGGGEVKLDETGGGLVQPGRPMKLSCVASGFTFSDYWMNWVRQSPEKGLEWVAQIRNKPYNYETYYSDSVKGRFTISRDDSKSSVYLQMNNLRVEDMGIYYCTGSYYGMDYWGQGTSVTVSSASTKGEVAACEKEVAALEKEVAALEKEVAALEKGGGDKTHTCPPCPAPEAAGGPSVFLFPPKPKDTLMISRTPEVTCVVVDVSHEDPEVKFNWYVDGVEVHNAKTKPREEQYNSTYRVVSVLTVLHQDWLNGKEYKCKVSNKALPAPIEKTISKAKGQPREPQVYTLPPSREEMTKNQVSLWCLVKGFYPSDIAVEWESNGQPENNYKTTPPVLDSDGSFFLYSKLTVDKSRWQQGNVFSCSVMHEALHNHYTQKSLSLSPGK
chain 2: DVVMTQTPFSLPVSLGDQASISCRSSQSLVHSNGNTYLRWYLQKPGQSPKVLIYKVSNRFSGVPDRFSGSGSGTDFTLKISRVEAEDLGVYFCSQSTHVPWTFGGGTKLEIKGGGSGGGGQVTLRESGPALVKPTQTLTLTCTFSGFSLSTSGMSVGWIRQPPGKALEWLADIWWDDKKDYNPSLKSRLTISKDTSKNQVVLKVTNMDPADTATYYCARSMITNWYFDVWGAGTTVTVSSASTKGKVAACKEKVAALKEKVAALKEKVAALKE
heavy: QVQLVQSGAEVKKPGASVKVSCKASGYTFTNYGMNWVRQAPGQGLEWMGWINTNIGEPTYTEEFKGRVTMTRDTSISTAYMELSRLRSDDTAVYYCARDDGYGNRVSYWGQGTLVTVSSASTKGPSVFPLAPSSKSTSGGTAALGCLVKDYFPEPVTVSWNSGALTSGVHTFPAVLQSSGLYSLSSVVTVPSSSLGTQTYICNVNHKPSNTKVDKRVEPKSCDKTHTCPPCPAPEAAGGPSVFLFPPKPKDTLMISRTPEVTCVVVDVSHEDPEVKFNWYVDGVEVHNAKTKPREEQYNSTYRVVSVLTVLHQDWLNGKEYKCKVSNKALPAPIEKTISKAKGQPREPQVYTLPPSREEMTKNQVSLSCAVKGFYPSDIAVEWESNGQPENNYKTTPPVLDSDGSFFLVSKLTVDKSRWQQGNVFSCSVMHEALHNRYTQKSLSLSPGK
light: DIQMTQSPSSLSASVGDRVTITCKASQDISNYLSWFQQKPGKAPKTLIYRANRLQSGVPSRFSGSGSGTDFTLTISSLQPEDFATYYCLQHDEFPWTFGQGTKLEIKRTVAAPSVFIFPPSDEQLKSGTASVVCLLNNFYPREAKVQWKVDNALQSGNSQESVTEQDSKDSTYSLSSTLTLSKADYEKHKVYACEVTHQGLSSPVTKSFNRGEC
notes: also called RSV×FITC×HER2 control molecule; TA×FITC×RSV control molecule

In one experiment the target is T1, extracellular portion of human CD137 fused to a histidine-containing peptide (human, UniProt Q07011 24-186).
T1 construct: extracellular domain; also called huCD137; His-tagged soluble human CD137
Put plainly: Attana Cell A200 QCM; antibody captured by anti-human IgG Fc; soluble human CD137-His; grade relative to (1B.3).
For B1, the binding result is “binds”.

Regarding B2, the binding result is listed as “binds”.

For the molecule B3, the binding result is given as “binds”. As for B4, the binding result was “binds”. Take B5: the binding result is given as “binds”. For B6, the binding result is given as “binds”. Still for that read-out and setting: with B7 the entry was “binds”; with B8, “binds”; with B9, “binds”. For B10, the binding result was “binds”. Take B11: the binding result is “binds”. Regarding B12, the binding result is given as “binds”. Take B13: the binding result was “binds”. Consider B14, for which the binding result was “binds”. B15: the binding result is listed as “binds”.

The target in another experiment is T2, HER2/neu on the surface of target cells (N87, JIMT-1, MCF-7, MDA-MB231) (UniProt P04626 23-1255, limits assumed).
T2 construct: whole, on cells
In words: flow cytometry on MCF-7 cells, anti-hFc APC MFI. (In general: A flow cytometer gives signals particle by particle.)
As usually defined, the EC50 (read off the curve) is the concentration needed to bring the measured effect to its halfway point. A higher EC50 (read off the curve) goes with a less potent agent. On to B16, for which the concentration for a half-maximal effect (EC50 (read off the curve)) is roughly 0.2 nM.

The next experiment has as its target T2, HER2/neu on the surface of target cells …. Put plainly: flow cytometry on JIMT-1 cells, anti-hFc APC MFI.
As for B16, the half-maximal effective concentration (EC50 (read off the curve)) was roughly 0.7 nM.

For the next experiment the target is unchanged. In words: flow cytometry on N87 cells, anti-hFc APC MFI.
With B16, the “EC50 (read off the curve)” value is roughly 1 nM.

The values above are taken from patent US20220406376A1 (MacroGenics, published 2022).
